Earlier results in publication PMC3575409, “Identification of a Novel Protein-Protein Interaction Motif Mediating Interaction of GPCR-Associated Sorting Proteins with G Protein-Coupled Receptors” (PLoS ONE, 2013).

Tested on: GST-fused ADRB1 C-tail
Conditions: truncated form of GASP-1, amino-acids 898 to 1395; ref [10]; cited from earlier work
Source text: This discrepancy is most likely due to the fact that we used full-length GASPs to perform our experiments, while Heydorn and collaborators used a truncated form of GASP-1, corresponding to amino-acids 898 to 1395. When we performed GST-pull down experiments with a similar fragment of GASP-1 (corresponding to amino acids 924 to 1395), only 5% ...

B1: amino-acids 898 to 1395: truncated form of GASP-1 used by Heydorn and collaborators (protein, UniProt Q5JY77 898-1395, looked up, fragment)
chain: ESETEEETIFGSWFWDGKEVSEEAGPCCVSKPEDDEEMIVESWFWSRDKAIKETGTVATCESKPENEEGAIVGSWFEAEDEVDNRTDNGSNCGSRTLADEDEAIVGSWFWAGDEAHFESNPSPVFRAICRSTCSVEQEPDPSRRPQSWEEVTVQFKPGPWGRVGFPSISPFRFPKEAASLFCEMFGGKPRNMVLSPEGEDQESLLQPDQPSPEFPFQYDPSYRSVQEIREHLRAKESTEPESSSCNCIQCELKIGSEEFEELLLLMEKIRDPFIHEISKIAMGMRSASQFTRDFIRDSGVVSLIETLLNYPSSRVRTSFLENMIRMAPPYPNLNIIQTYICKVCEETLAYSVDSPEQLSGIRMIRHLTTTTDYHTLVANYMSGFLSLLATGNAKTRFHVLKMLLNLSENLFMTKELLSAEAVSEFIGLFNREETNDNIQIVLAIFENIGNNIKKETVFSDDDFNIEPLISAFHKVEKFAKELQGKTDNQNDPEGDQEN
interaction of GASP-1 with ADRB1 C-tail: low interaction
